This is an account of results in article PMC11005391, “Tetramerization is essential for the enzymatic function of the Pseudomonas aeruginosa virulence factor UDP-glucose pyrophosphorylase” (mBio, 2024).

Data set [1] deals with the molecule itself. Kind of data set: native gel or EMSA; blue native PAGE, uniform 12% polyacrylamide gel with 3.5% stacking gel, 13.5 ug of each protein loaded, Coomassie-stained bands.
Data set [2] deals with Q9I291. Briefly: SEC; as a1, but the more diluted sample of mutants with dilution-dependent behaviour (footnote b of Table 1; broken lines in Fig. 5 and Fig. S9).
Data set [3] concerns the molecule itself. Kind of data set: cell-based or functional assay.
Data set [4] concerns the molecule itself. Briefly: SEC; as a1, but the more diluted sample of mutants with dilution-dependent behaviour (footnote b of Table 1; broken lines in Fig. 5 and Fig. S9).
Data set [5] deals with the molecule itself. Briefly: SEC; Superdex 200 10/300 GL, 50 mM Tris-HCl pH 8.0, 300 mM NaCl, 10 mM MgCl2; oligomeric state calculated from elution volumes of proteins of known size; addition of UTP, Glc-1-P or UDP-Glc did not affect the oligomerization of the WT.
Data set [6] concerns the target Q9I291. The description is as above.
Data set [7] concerns the molecule itself. Described as above. This is another data set of the same source.

B1: PaUGP R57A (enzyme)
chain: MIKKCLFPAAGYGTRFLPATKAMPKEMLPVVNKPLIQYAVEEALEAGLSEIGIVTGAGKRSLEDHFDISYELEHQIRNTDKEKYLVGIRRLIDECTFAYTRQVEMKGLGHAILTGRPLIGDEPFAVVLADDLCLNLEGDSVLKQMVKLYNQFRCSIVAIQEVPPEETNKYGVIAGEMIRDDIFRVNTMVEKPKPEEAPSNLAIIGRYILTPDIFDLIEQTEPGKGGEIQITDALMKQAQDGCVLAYKFKGKRFDCGSAEGYIEATNFCYENLYKTGKAH
notes: UDP-glucose pyrophosphorylase of Pseudomonas aeruginosa (galU), residues 1-279, point mutant of Strep-PaUGP; Same construct as m1; source: E. coli BL21(DE3), purified (Strep-Tactin Sepharose); not shown: Strep-tagII, N-terminal, kept
For B1, the “stoichiometry N” value was 4 in data set [1] and 2.4 in data set [4]. In the data set with Q9I291 [2], this protein returned a N of the monomer peak (minor peak) of 1.2. Moreover, the “In vitro activity (% of WT), EnzChek pyrophosphate assay, forward reaction” value (shortened to “In vitro activity (% of WT)”) in data set [3] was 1.28 % of WT.

B2: PaUGP K21Q (enzyme)
chain: MIKKCLFPAAGYGTRFLPATQAMPKEMLPVVNKPLIQYAVEEALEAGLSEIGIVTGRGKRSLEDHFDISYELEHQIRNTDKEKYLVGIRRLIDECTFAYTRQVEMKGLGHAILTGRPLIGDEPFAVVLADDLCLNLEGDSVLKQMVKLYNQFRCSIVAIQEVPPEETNKYGVIAGEMIRDDIFRVNTMVEKPKPEEAPSNLAIIGRYILTPDIFDLIEQTEPGKGGEIQITDALMKQAQDGCVLAYKFKGKRFDCGSAEGYIEATNFCYENLYKTGKAH
notes: as for B1
With B2, the N of the monomer peak (main peak) in the data set with Q9I291 [2] worked out at 1.4. The “In vitro activity (% of WT)” value in data set [3] was 1.26 % of WT. The “N of a minor peak” value in data set [4] was found to be 2.7.

B3: PaUGP H74A (enzyme)
chain: MIKKCLFPAAGYGTRFLPATKAMPKEMLPVVNKPLIQYAVEEALEAGLSEIGIVTGRGKRSLEDHFDISYELEAQIRNTDKEKYLVGIRRLIDECTFAYTRQVEMKGLGHAILTGRPLIGDEPFAVVLADDLCLNLEGDSVLKQMVKLYNQFRCSIVAIQEVPPEETNKYGVIAGEMIRDDIFRVNTMVEKPKPEEAPSNLAIIGRYILTPDIFDLIEQTEPGKGGEIQITDALMKQAQDGCVLAYKFKGKRFDCGSAEGYIEATNFCYENLYKTGKAH
notes: as for B1
Take B3: the “stoichiometry N” value is 4 in data set [1] and 3.7 in data set [5]. Also, the “In vitro activity (% of WT)” value in data set [3] was 60.3 % of WT. Further, the N of the monomer peak (minor peak) in the data set with Q9I291 [6] is 1.3.

B4: PaUGP R101K (enzyme)
chain: MIKKCLFPAAGYGTRFLPATKAMPKEMLPVVNKPLIQYAVEEALEAGLSEIGIVTGRGKRSLEDHFDISYELEHQIRNTDKEKYLVGIRRLIDECTFAYTKQVEMKGLGHAILTGRPLIGDEPFAVVLADDLCLNLEGDSVLKQMVKLYNQFRCSIVAIQEVPPEETNKYGVIAGEMIRDDIFRVNTMVEKPKPEEAPSNLAIIGRYILTPDIFDLIEQTEPGKGGEIQITDALMKQAQDGCVLAYKFKGKRFDCGSAEGYIEATNFCYENLYKTGKAH
notes: as for B1
As for B4, the N of the monomer peak (minor peak) with Q9I291 [2] was found to be 1.2. The “In vitro activity (% of WT)” value in data set [3] is 1.31 % of WT. In data set [4], the “stoichiometry N” value was found to be 2.1.

B5: Pseudomonas aeruginosa uridine diphosphate-glucose pyrophosphorylase, wild type (Strep-PaUGP) (enzyme)
chain: MIKKCLFPAAGYGTRFLPATKAMPKEMLPVVNKPLIQYAVEEALEAGLSEIGIVTGRGKRSLEDHFDISYELEHQIRNTDKEKYLVGIRRLIDECTFAYTRQVEMKGLGHAILTGRPLIGDEPFAVVLADDLCLNLEGDSVLKQMVKLYNQFRCSIVAIQEVPPEETNKYGVIAGEMIRDDIFRVNTMVEKPKPEEAPSNLAIIGRYILTPDIFDLIEQTEPGKGGEIQITDALMKQAQDGCVLAYKFKGKRFDCGSAEGYIEATNFCYENLYKTGKAH
notes: UDP-glucose pyrophosphorylase (UGP, EC 2.7.7.9) of Pseudomonas aeruginosa, galU gene amplified from plasmid PaCD00006903; residues 1-279; no cleavage is reported; Crystallised with UDP-Glc and Mg2+; also called PaUGP WT; Strep-tagged PaUGP; source: E. coli BL21(DE3), purified (Strep-Tactin Sepharose); not shown: Strep-tagII, N-terminal, kept
Take B5: the “stoichiometry N” value in data set [7] is 4.

B6: PaUGP R101A (enzyme)
chain: MIKKCLFPAAGYGTRFLPATKAMPKEMLPVVNKPLIQYAVEEALEAGLSEIGIVTGRGKRSLEDHFDISYELEHQIRNTDKEKYLVGIRRLIDECTFAYTAQVEMKGLGHAILTGRPLIGDEPFAVVLADDLCLNLEGDSVLKQMVKLYNQFRCSIVAIQEVPPEETNKYGVIAGEMIRDDIFRVNTMVEKPKPEEAPSNLAIIGRYILTPDIFDLIEQTEPGKGGEIQITDALMKQAQDGCVLAYKFKGKRFDCGSAEGYIEATNFCYENLYKTGKAH
notes: as for B1
As to B6, the N of the monomer peak (minor peak) with Q9I291 [2] came to 1.2. Besides, in data set [3], the “In vitro activity (% of WT)” value was 0.83 % of WT. Further, in data set [4], the “N of a minor peak” value stood at 3.6 and the “stoichiometry N” value worked out at 1.8.

B7: PaUGP K21A (enzyme)
chain: MIKKCLFPAAGYGTRFLPATAAMPKEMLPVVNKPLIQYAVEEALEAGLSEIGIVTGRGKRSLEDHFDISYELEHQIRNTDKEKYLVGIRRLIDECTFAYTRQVEMKGLGHAILTGRPLIGDEPFAVVLADDLCLNLEGDSVLKQMVKLYNQFRCSIVAIQEVPPEETNKYGVIAGEMIRDDIFRVNTMVEKPKPEEAPSNLAIIGRYILTPDIFDLIEQTEPGKGGEIQITDALMKQAQDGCVLAYKFKGKRFDCGSAEGYIEATNFCYENLYKTGKAH
notes: UDP-glucose pyrophosphorylase of Pseudomonas aeruginosa (galU), residues 1-279, point mutant of Strep-PaUGP; source: E. coli BL21(DE3), purified (Strep-Tactin Sepharose); not shown: Strep-tagII, N-terminal, kept
In turn, B7 returned a N of the monomer peak (main peak) in the data set with Q9I291 [2] of 1.2. The “In vitro activity (% of WT)” value in data set [3] was 5 % of WT. Besides, in data set [4], the “N of a minor peak” value was 2.3.

B8: PaUGP N266D (enzyme)
chain: MIKKCLFPAAGYGTRFLPATKAMPKEMLPVVNKPLIQYAVEEALEAGLSEIGIVTGRGKRSLEDHFDISYELEHQIRNTDKEKYLVGIRRLIDECTFAYTRQVEMKGLGHAILTGRPLIGDEPFAVVLADDLCLNLEGDSVLKQMVKLYNQFRCSIVAIQEVPPEETNKYGVIAGEMIRDDIFRVNTMVEKPKPEEAPSNLAIIGRYILTPDIFDLIEQTEPGKGGEIQITDALMKQAQDGCVLAYKFKGKRFDCGSAEGYIEATDFCYENLYKTGKAH
notes: as for B1
Regarding B8, the “stoichiometry N” value in data set [1] was 4; in data set [5], 4.2. In addition, the “In vitro activity (% of WT)” value in data set [3] was 105 % of WT. Besides, the N of the monomer peak (minor peak) with Q9I291 [6] is 1.2.

B9: PaUGP Y70F (enzyme)
chain: MIKKCLFPAAGYGTRFLPATKAMPKEMLPVVNKPLIQYAVEEALEAGLSEIGIVTGRGKRSLEDHFDISFELEHQIRNTDKEKYLVGIRRLIDECTFAYTRQVEMKGLGHAILTGRPLIGDEPFAVVLADDLCLNLEGDSVLKQMVKLYNQFRCSIVAIQEVPPEETNKYGVIAGEMIRDDIFRVNTMVEKPKPEEAPSNLAIIGRYILTPDIFDLIEQTEPGKGGEIQITDALMKQAQDGCVLAYKFKGKRFDCGSAEGYIEATNFCYENLYKTGKAH
notes: as for B1
With B9, the “stoichiometry N” value in data set [1] is 4; in data set [5], 3.7. The “In vitro activity (% of WT)” value in data set [3] was 47.2 % of WT. In the data set with Q9I291 [6], the N of the monomer peak (minor peak) was 1.3.

B10: PaUGP R57K (enzyme)
chain: MIKKCLFPAAGYGTRFLPATKAMPKEMLPVVNKPLIQYAVEEALEAGLSEIGIVTGKGKRSLEDHFDISYELEHQIRNTDKEKYLVGIRRLIDECTFAYTRQVEMKGLGHAILTGRPLIGDEPFAVVLADDLCLNLEGDSVLKQMVKLYNQFRCSIVAIQEVPPEETNKYGVIAGEMIRDDIFRVNTMVEKPKPEEAPSNLAIIGRYILTPDIFDLIEQTEPGKGGEIQITDALMKQAQDGCVLAYKFKGKRFDCGSAEGYIEATNFCYENLYKTGKAH
notes: as for B1
Take B10: the “stoichiometry N” value amounted to 4 in data set [1] and 3.2 in data set [4]. In the data set with Q9I291 [2], this protein registered a N of the monomer peak (minor peak) of 1.2. Further, the “In vitro activity (% of WT)” value in data set [3] is 2.36 % of WT.
